From patent US20210268016A1

Target: recombinant full-length human PrP^C (AA23-231) (human) (UniProt P04156)

## Poly-d-glutamic acid sodium salt (peptide)
  IC50: > 1 µM
